According to the supplement of paper PMC9732359:
± gives the uncertainty stated by the source.

Assay: protein stability index of a GFP-peptide fusion (yeast GPS) (PSI 1-4); higher = more stable; sorted into four equal gates, so the index is relative within each strain
How it was run: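 The protein stability index combines read frequencies across sorting gates, each weighted by its gate number and then summed. To obtain those frequencies, a pooled yeast library of GFP fusions to tiled 17-residue yeast protein peptides, on a plasmid also expressing Cherry, was grown to mid-log phase in leucine-free medium. The cells were sorted into four equal gates by GFP/Cherry ratio before plasmid amplification by PCR and Illumina sequencing.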

Sequence	protein stability index (pdr5∆)	protein stability index (san1∆)	protein stability index (ubr1∆)	protein stability index (doa10∆)
RIGTIVHKERHDGGFDL [RPS4A]	2.54 ± 0.16	1.65 ± 0.17	1.99 ± 0.23	
GNKALEDEEEFSIFNYF [RPC34]	3.37 ± 0.14			3.21 ± 0.13
ILERAYKKLDIDGKVIQ [SNF2]	3.34 ± 0.076	3.05 ± 0.042	3 ± 0.058	3.16 ± 0.083
QSVYNDEKLKTEKLKND [SRB8]	3.74 ± 0.21	3.21 ± 0.18	3.36 ± 0.22	
QPWQMDTNNEADLMALE [SNF12]	3.25 ± 0.076	2.86 ± 0.054	3.2 ± 0.036	2.59 ± 0.068
VKTPKKTKYILQRPTAT [CSN12]	3.03 ± 0.076	2.6 ± 0.079	2.43 ± 0.21	2.89 ± 0.069
SKTVKVLKTLIEKFEQV [RPN6]	3.25 ± 0.1	3.07 ± 0.11	2.83 ± 0.07	2.27 ± 0.2
LLGNCYSLRLINKEIFH [SRB8]	1.46 ± 0.094	1.46 ± 0.17	1.36 ± 0.073	1.79 ± 0.069
VQGKNLLTNFHGMDFTT [RPS1A]	3.42 ± 0.055	3.22 ± 0.045	3.23 ± 0.052	3.42 ± 0.078
YGESDIHFREHQSELII [YMR129W/POM152]	2.89 ± 0.096	2.21 ± 0.13	2.49 ± 0.077	2.31 ± 0.089
QDVDDAHAIDQMTWRQW [POP8]	1.99 ± 0.052	1.78 ± 0.069	2.5 ± 0.076	2.1 ± 0.058
SNMFDNSADVDMDAQGR [YGL100W/SEH1]	3.55 ± 0.076	3.5 ± 0.057	3.29 ± 0.062	3.42 ± 0.085
LFKALKVILNERGGKFH [RGR1]	2.64 ± 0.068	2.17 ± 0.094	2.64 ± 0.059	2.44 ± 0.075
GLIPYPHHNQSPRNTYQ [RET1]	2.77 ± 0.095	2.83 ± 0.069	2.93 ± 0.069	2.58 ± 0.078
ISQVSSIHAIGSIKEDY [RPB7]	2.65 ± 0.067	2.32 ± 0.084	2.79 ± 0.1	2.27 ± 0.077
TKQIQSVRIDGRKVLQK [SIR4]	2.48 ± 0.055	2.03 ± 0.069	2.02 ± 0.04	2.32 ± 0.06
STVASALDTNGTSATTE [SIR4]	2.15 ± 0.065	2.91 ± 0.064	1.88 ± 0.045	2.2 ± 0.075
EDMETQASDPSKKKKNI [RPC53]	3.44 ± 0.19	3.24 ± 0.16	3.33 ± 0.15	3.27 ± 0.14
NAYASFLQRQGKLEVPG [RPS19A]	3.24 ± 0.19	3.21 ± 0.12	3.2 ± 0.094	
LHDTQIEGKLHMATALQ [RPN10]	2.37 ± 0.2		2.38 ± 0.23	2.48 ± 0.22
TGSNDRCIGDSDNVSFE [YMR129W/POM152]	2.73 ± 0.068	2.5 ± 0.077	3.09 ± 0.048	3.19 ± 0.066
ITKEVTQVNILKENNAI [YIL149C/MLP2]	3.14 ± 0.065	2.87 ± 0.085	3.17 ± 0.044	2.91 ± 0.057
EAAFRNIKTIAETLAEE [RPS5]	3.28 ± 0.076	3.25 ± 0.053	2.84 ± 0.046	2.79 ± 0.084
DLEWQELTSFSSQPLEP [DSN1]	3.05 ± 0.053	2.98 ± 0.054	2.98 ± 0.036	3.05 ± 0.054
QNDFLFSVGESLSVVAG [ECM29]	3.08 ± 0.12	2.92 ± 0.11	2.71 ± 0.061	2.61 ± 0.065

Sequence	protein stability index (pdr5∆)	protein stability index (san1∆)	protein stability index (ubr1∆)	protein stability index (doa10∆)
SPSYSPTSPNYSPTSPS [RPO21]	2.94 ± 0.04	2.97 ± 0.033	3.024 ± 0.026	2.85 ± 0.039
NSSESDEEESNDEKQKA [RPN13]	2.43 ± 0.21		3.41 ± 0.088	3.32 ± 0.17
LVKTKELIKNYITARIM [FAS1]	2.91 ± 0.19	3.02 ± 0.27	2.64 ± 0.073	
MELLTQMDGFDNLGQTK [RPT4]	3.56 ± 0.11	3.65 ± 0.081	3.44 ± 0.079	3.53 ± 0.09
VCFNNLVDENTDYLYRR [YCS4]	2.56 ± 0.05	2.48 ± 0.081	2.08 ± 0.037	2.61 ± 0.067
SPASGIVDKYIGESARI [RPT4]	2.84 ± 0.18	2.45 ± 0.16		2.95 ± 0.27
NLLKVSVDICNNSKSRY [ECM29]	2.2 ± 0.066	2.9 ± 0.052	2.02 ± 0.054	2.04 ± 0.07
DDNDVPGPLPDTDSKPS [YLR018C/POM34]	2.98 ± 0.084	2.76 ± 0.11	2.38 ± 0.13	2.9 ± 0.12
EKLVSDLRLIKVPQQAA [SMC1]	3.44 ± 0.16	2.16 ± 0.24	3.3 ± 0.14	3.19 ± 0.18
EGDIQVLKSYGAAPYAA [RPT1]	2.83 ± 0.12	3.05 ± 0.082	2.82 ± 0.063	2.84 ± 0.095
SNYDWLFQLLNALTVGD [RPN9]	2.52 ± 0.075	2.2 ± 0.083	2.56 ± 0.048	2.34 ± 0.076
LLYLRLKNIYVSADDFV [PRP8]	1.39 ± 0.054	1.27 ± 0.097	1.16 ± 0.046	1.26 ± 0.052
IPSSKYAYMMNSQSPRG [YLR018C/POM34]	2.69 ± 0.066	2.75 ± 0.044	2.75 ± 0.045	2.78 ± 0.062
VNGAKNLVVSGPPQSLY [FAS1]	1.78 ± 0.066	2.03 ± 0.088	2.2 ± 0.052	2.07 ± 0.1
KVSPSMCGVIVKQYNKK [SIN4]	2.98 ± 0.15	2.58 ± 0.15	3.15 ± 0.14	3 ± 0.19
KVISSDARGVIGVIAGG [RPL2A]	2.82 ± 0.091	2.85 ± 0.1	2.84 ± 0.12	2.81 ± 0.086
KIVEIDRHIGCAMSGLT [PUP2]	2.32 ± 0.091	2 ± 0.14	2.17 ± 0.06	1.82 ± 0.07
IDPSVTMMTVEEKPDVT [RPT1]	2.58 ± 0.059	1.93 ± 0.13	2.38 ± 0.05	2.62 ± 0.097
VGVNKDSYLILDTLPSE [RPT5]	3.18 ± 0.08	3.19 ± 0.078	3.14 ± 0.032	3.15 ± 0.069
PKASSAKFFLNVSDEQL [ITC1]	3.18 ± 0.055	3.17 ± 0.063	3.23 ± 0.075	3.1 ± 0.094
DTRFGGRMDMTRLYDYE [SSN2]	3.23 ± 0.081	3.47 ± 0.045	3.21 ± 0.061	3.14 ± 0.1
RFISDLLWLVLIHPENF [SWI1]	1.28 ± 0.092	1.86 ± 0.2	2.59 ± 0.18	1.82 ± 0.081
ADEPVKASLLLHVLVAH [FAS2]	1.59 ± 0.035	1.3 ± 0.059	1.43 ± 0.028	1.85 ± 0.043
NYNSTSRSTEKKNDMNT [SIR4]	2.48 ± 0.058	2.61 ± 0.079	2.55 ± 0.049	2.33 ± 0.061
VYANNPEVSDDGGLEEE [SIR3]	2.87 ± 0.12	2.52 ± 0.14	3.04 ± 0.09	2.97 ± 0.13

Sequence	protein stability index (pdr5∆)	protein stability index (san1∆)	protein stability index (ubr1∆)	protein stability index (doa10∆)
DGMDAAHIEKQSLDTIG [RPO21]	3.29 ± 0.095	3.24 ± 0.093	3.05 ± 0.083	3.36 ± 0.088
QQAQARLQQGRRLPMTM [SNF2]	3.15 ± 0.055	3.24 ± 0.035	3.22 ± 0.048	3.1 ± 0.065
PKNYSLHGLRSFYDAIF [YJL039C/NUP192]	2.61 ± 0.041	2.37 ± 0.043	2.4 ± 0.041	2.53 ± 0.042
KPSLVDVHLLESKVYHK [RPN6]	1.9 ± 0.053	1.77 ± 0.086	2.05 ± 0.061	1.74 ± 0.045
KTKLWGFKWLNKLDEYH [LIN1]			3.22 ± 0.2	
AASKVKLEEESKRGNDK [RPC53]	3.41 ± 0.098	3.38 ± 0.071	3.25 ± 0.064	3.27 ± 0.089
IYYDSYIHLAYSRSVDK [SSN2]	2.78 ± 0.14	2.89 ± 0.11	3.26 ± 0.088	2.71 ± 0.13
DKKNKRLKFGHRLIATH [SNF2]	1.8 ± 0.057	1.85 ± 0.091	2 ± 0.056	2.02 ± 0.077
KKAVKELYEVDVLKVNT [RPL25]	3.09 ± 0.073	3.1 ± 0.037	3.13 ± 0.049	3.01 ± 0.069
LMMVEKVPDSTYDMVGG [RPT6]	2.98 ± 0.071	2.84 ± 0.069	3.01 ± 0.068	2.6 ± 0.081
SVGTDPMPIITFLSEWG [RPB2]	1.99 ± 0.057	1.57 ± 0.094	2.22 ± 0.062	2.7 ± 0.1
PAFSFNSSVGNKTDAQA [YJL041W/NSP1]	3.47 ± 0.11	2.85 ± 0.1	3.16 ± 0.085	2.82 ± 0.14
KNDTKILVLALEDLKDV [PRP8]	1.96 ± 0.099	1.55 ± 0.11	1.73 ± 0.055	1.6 ± 0.1
KKAEKAARKAEKAKSAG [RPL24A]	3.32 ± 0.053	3.53 ± 0.046	3.48 ± 0.055	3.34 ± 0.066
NTLRKCYPQFAERDSQG [UBP6]	2.65 ± 0.15	2.79 ± 0.15	2.78 ± 0.12	2.92 ± 0.17
LDDITDSNTTEILTSVD [SIR4]	3.18 ± 0.072	2.94 ± 0.069	3.08 ± 0.065	3.26 ± 0.066
HKTFLVANVKDLETLTM [RPL32]	3.39 ± 0.26	3.22 ± 0.09	2.83 ± 0.17	
LHEKYLTEGGSILEEKI [SMC1]	3.24 ± 0.1	3.01 ± 0.061	3.19 ± 0.094	3.02 ± 0.077
YKKPTGGIVTVRSEMGE [FAS1]	1.69 ± 0.069	1.32 ± 0.18	1.39 ± 0.082	2.66 ± 0.13
DGGLEEETDEVSSESSD [SIR3]	3.3 ± 0.11	3.2 ± 0.089	3.24 ± 0.086	3.3 ± 0.099
EIENATKDIFPLQNIHV [RPS1A]	2.36 ± 0.27	1.11 ± 0.29	2.25 ± 0.083	2.1 ± 0.086
AERDSQGGFYKQQDAEE [UBP6]	3.38 ± 0.089	3.07 ± 0.077	3.28 ± 0.055	3.35 ± 0.08
SYFYRRIHVNPSYYGVR [BRR2]	1.85 ± 0.057	1.61 ± 0.07	1.76 ± 0.029	1.5 ± 0.064
PTTMVTNQKDTNDHVDK [ISW2]	2.03 ± 0.064	1.67 ± 0.1	1.75 ± 0.055	1.96 ± 0.062
